Test results as given in PMC5662687 (2017).

Target: LFA-1 I domain I domain (Homo sapiens, UniProt P20701)
Test: SPR

- Kd: 1500 µM
B1: ICAM-1 (protein)
chain: QTSVSPSKVILPRGGSVLVTCSTSCDQPKLLGIETPLPKKELLLPGNNRKVYELSNVQEDSQPMCYSNCPDGQSTAKTFLTVYWTPERVELAPLPSWQPVGKNLTLRCQVEGGAPRANLTVVLLRGEKELKREPAVGEPAEVTTTVLVRRDHHGANFSCRTELDLRPQGLELFENTSAPYQLQTFVLPATPPQLVSPRVLEVDTQGTVVCSLDGLFPVSEAQVHLALGDQRLNPTVTYGNDSFSAKASVSVTAEDEGTQRLTCAVILGNQSQETLQTVTIYSFPAPNVILTKPEVSEGTEVTVKCEAHPRAKVTLNGVPAQPLGPRAQLLLKATPEDNGRSFSCSATLEVAGQLIHKNQTRELRVLYGPRLDERDCPGNWTWPENSQQTPMCQAWGNPLPELKCLKDGTFPLPIGESVTVTRDLEGTYLCRARSTQGEVTRKVTVNVLSPRYE
